Measured values from patent US20240294593A1 (Genentech, published 2024).
Substitutions are numbered along the chain they refer to. Names and notes keep the numbering of the source.

B1: H1_L1.133 (antibody, V domains shown)
VH: EVQLVESGGGLVQPGGSLRLSCAASGFTFSSFGMHWVRQAPGKGLEWVSYISSGSSIIYYADSVKGRFTISRDNAKNSLYLQMNSLRAEDTAVYYCARGGRLVWSPDYWGQGTLVTVSS
VL: DIVMTQSPDSLAVSLGERATINCKSSQSLLNSGNQKNYLTWYQQKPGQPPKLLIYWASTRESGVPDRFTGSGSGTDFTLTISSLQAEDVAVYYCQNDYSDPFTFGSGTKLEIKR
notes: also called VL-Y100D; Kabat 94
B2: H1_L1.132 (antibody, V domains shown)
VH: B1 VH
VL: B1 VL with D100Q
notes: also called VL-Y100Q; Kabat 94
B3: H1_L1.127 (antibody, V domains shown)
VH: B1 VH
VL: B1 VL with D100H
notes: also called VL-Y100H; Kabat 94
B4: H1_L1.134 (antibody, V domains shown)
VH: B1 VH
VL: B1 VL with D100K
notes: also called VL-Y100K; Kabat 94
B5: H1_L1.128 (antibody, V domains shown)
VH: B1 VH
VL: B1 VL with D100L
notes: also called VL-Y100L; Kabat 94
B6: H1_L1.129 (antibody, human IgG1, kappa, V domains shown)
VH: B1 VH
VL: B1 VL with D100W
notes: also called VL-Y100W; Kabat 94
B7: H1.178_L1.140 (XENP32424) (antibody, V domains shown)
VH: B1 VH with F32L, S53G, R101F, W104F
VL: B1 VL with N31H, K36Y, S99T, D100Y
notes: VH-F34L/S55G/R109F/W112F, VL-N31H/K36Y/S99T (Xencor #); Kabat positions VH-32/52A/97/100, VL-27D/30/93; also called mAb C[PD-1]_H1.178_L1.140; copies: 2 + 2
B8: H1.187_L1.140 (XENP32433) (antibody, V domains shown)
VH: B1 VH with F32L, S53G, R101W, W104F
VL: B1 VL with N31H, K36Y, S99T, D100Y
notes: VH-F34L/S55G/R109W/W112F, VL-N31H/K36Y/S99T (Xencor #); Kabat positions VH-32/52A/97/100, VL-27D/30/93; also called mAb C[PD-1]_H1.187_L1.140
B9: mAb C[PD1]_H1.177_L1.140 (bivalent IgG1) (antibody, V domains shown)
VH: B1 VH with F32L, S53G, W104F
VL: B1 VL with N31H, K36Y, S99T, D100Y
notes: Bivalent IgG1 format with E233P/L234V/L235A/G236_/S267K; copies: 2 + 2
B10: H1.183_L1.140 (XENP32429) (antibody, V domains shown)
VH: B1 VH with F32L, S53G, R101V, W104F
VL: B1 VL with N31H, K36Y, S99T, D100Y
notes: VH-F34L/S55G/R109V/W112F, VL-N31H/K36Y/S99T (Xencor #); Kabat positions VH-32/52A/97/100, VL-27D/30/93; also called mAb C[PD-1]_H1.183_L1.140; copies: 2 + 2
B11: H1.182_L1.140 (XENP32428) (antibody, V domains shown)
VH: B1 VH with F32L, S53G, R101L, W104F
VL: B1 VL with N31H, K36Y, S99T, D100Y
notes: VH-F34L/S55G/R109L/W112F, VL-N31H/K36Y/S99T (Xencor #); Kabat positions VH-32/52A/97/100, VL-27D/30/93; also called mAb C[PD-1]_H1.182_L1.140; copies: 2 + 2
B12: mAb C[PD1]_H1.180_L1.140 (bivalent IgG1) (antibody, V domains shown)
VH: B1 VH with F32L, S53G, R101E, W104F
VL: B1 VL with N31H, K36Y, S99T, D100Y
notes: as for B9
B13: H1.188_L1.140 (XENP32434) (antibody, V domains shown)
VH: B1 VH with F32L, S53G, R101T, W104F
VL: B1 VL with N31H, K36Y, S99T, D100Y
notes: VH-F34L/S55G/R109T/W112F, VL-N31H/K36Y/S99T (Xencor #); Kabat positions VH-32/52A/97/100, VL-27D/30/93; also called mAb C[PD-1]_H1.188_L1.140
B14: H1.186_L1.140 (XENP32432) (antibody, V domains shown)
VH: B1 VH with F32L, S53G, R101A, W104F
VL: B1 VL with N31H, K36Y, S99T, D100Y
notes: VH-F34L/S55G/R109A/W112F, VL-N31H/K36Y/S99T (Xencor #); Kabat positions VH-32/52A/97/100, VL-27D/30/93; also called mAb C[PD-1]_H1.186_L1.140; copies: 2 + 2
B15: H1.184_L1.140 (XENP32430) (antibody, V domains shown)
VH: B1 VH with F32L, S53G, R101D, W104F
VL: B1 VL with N31H, K36Y, S99T, D100Y
notes: VH-F34L/S55G/R109D/W112F, VL-N31H/K36Y/S99T (Xencor #); Kabat positions VH-32/52A/97/100, VL-27D/30/93; also called mAb C[PD-1]_H1.184_L1.140; copies: 2 + 2
B16: H1.181_L1.140 (XENP32427) (antibody, V domains shown)
VH: B1 VH with F32L, S53G, R101Q, W104F
VL: B1 VL with N31H, K36Y, S99T, D100Y
notes: VH-F34L/S55G/R109Q/W112F, VL-N31H/K36Y/S99T (Xencor #); Kabat positions VH-32/52A/97/100, VL-27D/30/93; also called mAb C[PD-1]_H1.181_L1.140; copies: 2 + 2
B17: H1.185_L1.140 (XENP32431) (antibody, V domains shown)
VH: B1 VH with F32L, S53G, R101H, W104F
VL: B1 VL with N31H, K36Y, S99T, D100Y
notes: VH-F34L/S55G/R109H/W112F, VL-N31H/K36Y/S99T (Xencor #); Kabat positions VH-32/52A/97/100, VL-27D/30/93; also called mAb C[PD-1]_H1.185_L1.140; copies: 2 + 2
B18: H1.179_L1.140 (XENP32425) (antibody, V domains shown)
VH: B1 VH with F32L, S53G, R101Y, W104F
VL: B1 VL with N31H, K36Y, S99T, D100Y
notes: VH-F34L/S55G/R109Y/W112F, VL-N31H/K36Y/S99T (Xencor #); Kabat positions VH-32/52A/97/100, VL-27D/30/93; also called mAb C[PD-1]_H1.179_L1.140; copies: 2 + 2

Target: T1, human PD-1-His (human, UniProt Q15116 25-167, limits assumed)
T1 construct: Antigen of the Octet assays; not shown: His tag
T1 sequence (Q15116 25-167 limits assumed): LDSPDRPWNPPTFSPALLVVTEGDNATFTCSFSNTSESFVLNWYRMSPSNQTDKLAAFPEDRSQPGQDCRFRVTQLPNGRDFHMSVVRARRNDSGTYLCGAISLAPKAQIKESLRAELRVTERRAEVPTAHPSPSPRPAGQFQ
Test: Octet

Binder	Kd [nM]	koff [s⁻¹]	kon [M⁻¹ s⁻¹]
B1	405	0.0264	65100
B2	37	0.00615	166000
B3	55.5	0.00741	133000
B4	91.3	0.0153	168000
B5	186	0.0911	490000
B6	9.44	0.001	106000

Target: T1, human PD-1-His
Test: Octet (BLI), bivalent IgG1 mAb

Binder	koff [s⁻¹]	kon [M⁻¹ s⁻¹]
B7	0.000182	184000
B8	0.000198	193000
B9	0.00022	138000
B10	0.000178	187000
B11	0.000176	187000
B12	0.000154	256000
B13	0.000177	181000
B14	0.000179	189000
B15	0.000188	236000
B16	0.000173	191000
B17	0.000169	160000
B18	0.00017	197000

Target: T1, human PD-1-His
Test: Octet (BLI), bivalent IgG1 mAb; legend calls the constant apparent (KDapp)

Binder	Kd [nM]
B7	0.986
B8	1.03
B9	1.6
B10	0.952
B11	0.943
B12	0.601
B13	0.981
B14	0.945
B15	0.798
B16	0.905
B17	1.06
B18	0.864
